Reference: PMC2837848 (Biochemistry, 2010)
Substitutions are numbered along the chain they refer to. Names may count otherwise.

B1: Salmonella typhimurium QAPRTase R118A (enzyme)
chain: MPPRRYNPDDRRDALLERINLDIPAAVAQALREDLGGEVDAGNDITAQLLPADTQAHATVITREDGVFCGKRWVEEVFIQLAGDDVRLTWHVDDGDAIHANQTVFELNGPARVLLTGEATALNFVQTLSGVASEVRRYVGLLAGTQTQLLDTRKTLPGLRTALKYAVLCGGGANHRLGLTDAFLIKENHIIASGSVRQAVEKAFWLHPDVPVEVEVENLDELDDALKAGADIIMLDNFNTDQMREAVKRVNGQARLEVSGNVTAETLREFAETGVDFISVGALTKHVRALDLSMRFC
B2: Salmonella typhimurium QAPRTase R175A (enzyme)
chain: B1 chain with A119R, R176A
B3: Salmonella typhimurium QAPRTase K185A (enzyme)
chain: B1 chain with A119R, K186A
B4: Salmonella typhimurium QAPRTase R152A (enzyme)
chain: B1 chain with A119R, R153A
B5: Salmonella typhimurium QAPRTase H188A (enzyme)
chain: B1 chain with A119R, H189A

Target: the molecule itself
Test: SEC

Row | Protein | stoichiometry N
1 | B1 | 2
2 | B2 | 2
3 | B3 | 2
4 | B4 | 2
5 | B5 | 2
